System: engineered chimeric receptor SEQ ID NO: 33 and its mutants (human α7-nAChR ligand binding domain / human GlyRα1 ion pore domain) in Lenti-X 293T cells
Test: YFP fluorescence quenching anion reporter plate reader assay (percent quench, EC50)
Format: cell-based
Settings: for YFP fluorescence quenching using CNL001 (percent quench): receptor named in row; for YFP fluorescence quenching using Facinicline, 30 nM fac: ligand Facinicline 30 nM; for YFP fluorescence quenching using Facinicline, 300 nM fac: ligand Facinicline 300 nM; for YFP fluorescence quenching using Facinicline, 30 uM fac: ligand Facinicline 30 uM; for YFP fluorescence quenching using TC-6987, 1 uM tc6987: ligand TC-6987 1 uM; for YFP fluorescence quenching using TC-6987, 10 uM tc6987: ligand TC-6987 10 uM; for YFP fluorescence quenching using TC-6987, 500 uM tc6987: ligand TC-6987 500 uM
Outline: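 Lenti-X 293T cells co-expressing an anion-quenchable YFP were transiently transfected with receptor DNA, then ligand was added in NaI-substituted buffer (pH 7.2) after 30 min at 37 °C. Fluorescence was read about 2 min; percent quench = mean of last 10 s over 15 s pre-ligand baseline.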

[1] = 1 nM CNL001, first column so headed
[2] = 1 nM CNL001, second column so headed
[3] = 10 nM CNL001, first column so headed
[4] = 10 nM CNL001, second column so headed
[5] = 50 nM CNL001, first column so headed
[6] = 50 nM CNL001, second column so headed
[7] = 100 nM CNL001, first column so headed
[8] = 100 nM CNL001, second column so headed
[9] = 1 uM CNL001, first column so headed
[10] = 1 uM CNL001, second column so headed

Row | Molecule | YFP fluorescence quenching using CNL001 (percent quench) [1] | YFP fluorescence quenching using CNL001 (percent quench) [2] | YFP fluorescence quenching using CNL001 (percent quench) [3] | YFP fluorescence quenching using CNL001 (percent quench) [4] | YFP fluorescence quenching using CNL001 (percent quench) [5] | YFP fluorescence quenching using CNL001 (percent quench) [6] | YFP fluorescence quenching using ABT-126 (percent quench) (50 nM abt (ABT-126)) | YFP fluorescence quenching using CNL001 (percent quench) [7] | YFP fluorescence quenching using CNL001 (percent quench) [8] | YFP fluorescence quenching (percent quench) (100 nM CNL002) | YFP fluorescence quenching using ABT-126 (percent quench) (100 nM abt (ABT-126)) | YFP fluorescence quenching using AZD-0328 (percent quench) (100 nM azd0328) | YFP fluorescence quenching using ABT-126 (percent quench) (300 nM abt (ABT-126)) | YFP fluorescence quenching using AZD-0328 (percent quench) (300 nM azd0328) | YFP fluorescence quenching using CNL001 (percent quench) [9] | YFP fluorescence quenching using CNL001 (percent quench) [10] | YFP fluorescence quenching (percent quench) (1 uM CNL002) | YFP fluorescence quenching using ABT-126 (percent quench) (1 uM abt (ABT-126)) | YFP fluorescence quenching (percent quench) (10 uM ach (acetylcholine)) | YFP fluorescence quenching (percent quench) (30 uM CNL002) | also measured
1 | CODA535: engineered receptor: L131T, S172D in SEQ ID NO: 33 (protein, synthetic sequence of chimeric LGIC) MRCSPGGVWLALAASLLHVSLQGEFQRKLYKELVKNYNPLERPVANDSQPLTVYFSLSLLQIMDVDEKNQVLTTNIWLQMSWTDHYLQWNVSEYPGVKTVRFPDGQIWKPDILLYNSADERFDATFHTNVTVNSSGHCQYLPPGIFKSSCPMDLKNFPMDVQTCKLKFGSWDYGGWSLDLQMQEADISGYIPNGEWDLVGIPGKRSERFYECCKEPYPDVTFTVTMRRRMGYYLIQMYIPSLLIVILSWISFWINMDAAPARVGLGITTVLTMTTQSSGSRASLPKVSYVKAIDIWMAVCLLFVFSALLEYAAVNFVSRQHKELLRFRRKRRHHKSPMLNLFQEDEAGEGRFNFSAYGMGPACLQAKDGISVKGANNSNTTNPPPAPSKSPEEMRKLFIQRAKKIDKISRIGFPMAFLIFNMFYWIIYKIVRREDVHNQ | 8.736% | 24.572% | 60.552% | 63.09% | 73.242% | 73.889% | −11.09% | 76.147% | 76.21% | 1.23% | −10.37% | −7.02% | −4% | −0.48% | 78.988% | 78.818% | 35.77% | 4.05% | −12.24% | 68.29% | YFP fluorescence quenching using TC-6683 (percent quench) (30 nM TC-6683): −29.362%; YFP fluorescence quenching using TC-6683 (percent quench) (300 nM TC-6683): −28.954%; YFP fluorescence quenching using TC-6683 (percent quench) (3 uM TC-6683): −23.708%; YFP fluorescence quenching using TC-6683 (percent quench) (30 uM TC-6683): −23.431%; YFP fluorescence quenching using AZD-0328 (percent quench) (30 uM azd0328): 70.16%; YFP fluorescence quenching using TC-6683 (percent quench) (100 uM TC-6683): −18.324%; YFP fluorescence quenching (percent quench) (100 uM ach (acetylcholine)): −26.23%; YFP fluorescence quenching (percent quench) (1 mM ach (acetylcholine)): −1.16%; YFP fluorescence quenching (percent quench) (3 mM ach (acetylcholine)): 2.97%; YFP fluorescence quenching using Facinicline, 30 nM fac: −21.36; YFP fluorescence quenching using Facinicline, 300 nM fac: 4.17; YFP fluorescence quenching using Facinicline, 30 uM fac: 65.94; YFP fluorescence quenching using TC-6987, 1 uM tc6987: −21.8; YFP fluorescence quenching using TC-6987, 10 uM tc6987: −27.08; YFP fluorescence quenching using TC-6987, 500 uM tc6987: −21.56
2 | CODA805: engineered receptor: Y115D, S170T in SEQ ID NO: 33 (protein, synthetic sequence of chimeric LGIC) MRCSPGGVWLALAASLLHVSLQGEFQRKLYKELVKNYNPLERPVANDSQPLTVYFSLSLLQIMDVDEKNQVLTTNIWLQMSWTDHYLQWNVSEYPGVKTVRFPDGQIWKPDILLDNSADERFDATFHTNVLVNSSGHCQYLPPGIFKSSCPMDLKNFPMDVQTCKLKFGTWSYGGWSLDLQMQEADISGYIPNGEWDLVGIPGKRSERFYECCKEPYPDVTFTVTMRRRMGYYLIQMYIPSLLIVILSWISFWINMDAAPARVGLGITTVLTMTTQSSGSRASLPKVSYVKAIDIWMAVCLLFVFSALLEYAAVNFVSRQHKELLRFRRKRRHHKSPMLNLFQEDEAGEGRFNFSAYGMGPACLQAKDGISVKGANNSNTTNPPPAPSKSPEEMRKLFIQRAKKIDKISRIGFPMAFLIFNMFYWIIYKIVRREDVHNQ | −10.729% | −15.278% | −20.403% | −14.905% | −14.303% | −15.741% | −11.83% | −12.637% | −10.606% | −18.17% | −11.5% | −0.71% | −8.01% | −1.73% | −13.535% | −11.335% | −15.2% | −9.34% | −0.46% | −14% | YFP fluorescence quenching using TC-5619/Bradanicline (percent quench) (1 nM brd (TC-5619/Bradanicline)): −9.78%; YFP fluorescence quenching using TC-5619/Bradanicline (percent quench) (3 nM brd (TC-5619/Bradanicline)): −12.06%; YFP fluorescence quenching using TC-5619/Bradanicline (percent quench) (10 nM brd (TC-5619/Bradanicline)): −9.02%; YFP fluorescence quenching using TC-5619/Bradanicline (percent quench) (30 nM brd (TC-5619/Bradanicline)): −16.3%; YFP fluorescence quenching using TC-5619/Bradanicline (percent quench) (100 nM brd (TC-5619/Bradanicline)): −7.44%; YFP fluorescence quenching using TC-5619/Bradanicline (percent quench) (300 nM brd (TC-5619/Bradanicline)): −10.93%; YFP fluorescence quenching using TC-5619/Bradanicline (percent quench) (1 uM brd (TC-5619/Bradanicline)): −4.55%; YFP fluorescence quenching using AZD-0328 (percent quench) (30 uM azd0328): 47.39%; YFP fluorescence quenching (percent quench) (100 uM ach (acetylcholine)): −4.93%; YFP fluorescence quenching (percent quench) (1 mM ach (acetylcholine)): −11.18%; YFP fluorescence quenching (percent quench) (3 mM ach (acetylcholine)): −3.53%; YFP fluorescence quenching using Facinicline, 30 nM fac: 38.08; YFP fluorescence quenching using Facinicline, 100 nM fac (ligand Facinicline 100 nM): −14.37; YFP fluorescence quenching using Facinicline, 300 nM fac: 19.41; YFP fluorescence quenching using Facinicline, 10 uM fac (ligand Facinicline 10 uM): 67.33; YFP fluorescence quenching using Facinicline, 30 uM fac: 79.67; YFP fluorescence quenching using TC-6987, 1 uM tc6987: 31.9; YFP fluorescence quenching using TC-6987, 10 uM tc6987: 25.54; YFP fluorescence quenching using TC-6987, 500 uM tc6987: 21.13

Source: patent publication US20250152742A1, “COMPOSITIONS AND METHODS FOR NEUROLOGICAL DISEASES” (Trames Bio, Inc., priority 2022, published 2025)
